This note sets out measurements from patent US8110387B2, “Polypeptide having NADH dependent HMF reductase activity” (C5 Ligno Technologies Lund AB, priority 2007, dated 2012).

Changes are numbered by the printed parent chain. Numbers in names are those of the source.

What all share (assay type): biochemical, Saccharomyces cerevisiae
Series [1] is described as follows: In vitro NADH-dependent furan reductase activity of ADH1 mutants in cell extracts, furfural as substrate. Set-up: key: —: no detectable activity; detectable activity (ranging from moderate (+) to very high (+++)); detectable activity (ranging from moderate (+) to very high (+++)); detectable activity (ranging from moderate (+) to very high (+++)). The conditions noted are these: 10 mM furfural, 200 μM NADH, cell extract of CEN.PK 113-5D transformant, pH 6.7, 30° C. The protocol:
(§1) Plasmid carrying individual or combined mutations within the ADH1 gene were introduced in strain CEN.PK 113-5D by transformation according to the lithium acetate method (Gietz et al., 1992, Improved method for high efficiency transformation of intact yeast cells. Nucleic Acids Research 20:1425). Selection was performed on SD plates without uracil. The resulting strains were grown aerobically at 30° C. in 25 mL SD medium without uracil (in 250 mL baffled flask). Cell extracts were prepared by harvesting the cells at OD620 7.5-8.5, re-suspending the cells in Y-PER solution (Pierce, Rockford, Ill., USA), 1 mL/0.6gr cells, shaking at room temperature for 50 min. The supernatant was collected after centrifugation for 20 min at 15000 g. In vitro NADH-dependent furan reductase activity was measured by following the oxidation of NADH at 340 nm in a Hitachi U-2000 spectrophotometer (Hitachi, Tokyo, Japan). The assay consisted of 10 mM furaldehyde (HMF or furfural), 200 μM NADH and cell extract in 100 mM phosphate buffer (pH 6.7) at 30° C.

The nature of series [2]: In vitro NADH-dependent furan reductase activity of ADH1 mutants in cell extracts, HMF as substrate. The settings on record: 10 mM HMF, 200 μM NADH, cell extract of CEN.PK 113-5D transformant, pH 6.7, 30° C. Also noted: key: —: no detectable activity; detectable activity (ranging from moderate (+) to very high (+++)); detectable activity (ranging from moderate (+) to very high (+++)); detectable activity (ranging from moderate (+) to very high (+++)). The method, then: as §1

The nature of series [3]: Enzyme kinetics of Adh1 variants, NADH-dependent reduction of acetaldehyde. The method, then:
(§2) Cells were grown aerobically at 30° C. in 25 mL SD medium without uracil (in 250 mL baffled flask). Cell extracts were prepared by harvesting the cells at OD620 7.5-8.5, re-suspending the cells in Y-PER solution (Pierce, Rockford, Ill., USA), 1 mL/0.6 gr cells, shaking at room temperature for 50 min. The supernatant was collected after centrifugation for 20 min at 15000 g.
(§3) In vitro NADH-dependent furan reductase activity was measured by following the oxidation of NADH at 340 nm in a Hitachi U-2000 spectrophotometer (Hitachi, Tokyo, Japan). NADH-dependent aldehyde reduction was determined (Wahlbom and Hahn-Hägerdal, 2002) with 200 μM NADH. Reduction kinetics were determined for acetaldehyde (range […]-100 mM), furfural (100 μM-20 mM) and HMF (500 μM-20 mM). For native Adh1 furfural was used up to 40 mM.
(§4) Modeling was performed according to the Michaelis-Menten equation with the addition of a substrate inhibition constant: V=(Vmax·[S])/(Km+[S]+[S]2/KI), V—velocity, Vmax—maximal velocity, Km—affinity constant, Ki—substrate inhibition constant, and [S]—substrate concentration. Parameter value estimation was according to the least square method, using the solver function in Microsoft® Excel 2002. HMF activity parameters of strain BY474-ADH1-S117L were estimated without the substrate inhibition constant due to a clear discrepancy of the substrate inhibition model with actual data.

A short description of series [4]: Enzyme kinetics of Adh1 variants, NADH-dependent reduction of furfural. The protocol:
as §2, §3, §4

Where [5] appears, read: 200 μM NADH, cell extract of BY4741.

B1: V59T-Q148E-I152V-L117S-Y295C: mutated Adh1 from TMB3000 with reverse mutation at position 110 (protein, UniProt P00330 2-348, looked up, variant V59T Q148E I152V L117S Y295C)
Alcohol dehydrogenase 1: SIPETQKGVIFYESHGKLEYKDIPVPKPKANELLINVKYSGVCHTDLHAWHGDWPLPTKLPLVGGHEGAGVVVGMGENVKGWKIGDYAGIKWLNGSCMACEYCELGNESNCPHADSSGYTHDGSFQQYATADAVQAAHIPQGTDLAEVAPVLCAGITVYKALKSANLMAGHWVAISGAAGGLGSLAVQYAKAMGYRVLGIDGGEGKEELFRSIGGEVFIDFTKEKDIVGAVLKATDGGAHGVINVSVSEAAIEASTRYVRANGTTVLVGMPAGAKCCSDVFNQVVKSISIVGSCVGNRADTREALDFFARGLVKSPIKVVGLSTLPEIYEKMEKGQIVGRYVVDTSK
For the molecule B1, the “NADH-dependent Activity Furfural Reductase” value in series [1] was “+”. In series [2], the “NADH-dependent Activity HMF reductase” value is on record as “+”.

B2: BY4741-control: native S. cerevisiae Adh1 (V59, S110, L117, Q148, I152, Y295) overexpressed in ΔAdh1 strain BY4741 (protein, UniProt P00330 2-348, looked up)
Alcohol dehydrogenase 1: B1 Alcohol dehydrogenase 1 with T58V, S116L, E147Q, V151I, C294Y
Consider B2, for which the “[S]Vmax - substrate concentration at observed Vmax” value in series [3] was found to be 1 mM; in series [4], 30 mM. Further, the “Ki (substrate inhibition constant)” value was found to be 12.5326 mM in series [3] (setting [5]) and 1363 mM in series [4] (setting [5]). The “obsVmax (observed Vmax)” value in series [3] (substrate acetaldehyde) came out at 35300 mU/mg; in series [4] (substrate furfural), 4345 mU/mg. The Km in series [3] (substrate acetaldehyde, 200 μM NADH, cell extract of BY4741) came out at 0.217 mM; in series [4] (substrate furfural, 200 μM NADH, cell extract of BY4741), 18.8 mM. Besides, the Vmax is given as 45070 (mU)/mg in series [3] (substrate acetaldehyde, 200 μM NADH, cell extract of BY4741, model with substrate inhibition) and 6530 (mU)/mg in series [4] (substrate furfural, 200 μM NADH, cell extract of BY4741, model with substrate inhibition).

B3: V59T-Q148E-I152V-S110P-L117S: mutated Adh1 from TMB3000 with reverse mutation at position 295 (protein, UniProt P00330 2-348, looked up, variant V59T Q148E I152V S110P L117S)
Alcohol dehydrogenase 1: B1 Alcohol dehydrogenase 1 with S109P, C294Y
Consider B3, for which the “NADH-dependent Activity Furfural Reductase” value in series [1] is on record as “+”.

B4: S110P: native Adh1 with the single substitution S110P (protein, listed as Saccharomyces cerevisiae)
chain: MSIPETQKGVIFYESHGKLEYKDIPVPKPKANELLINVKYSGVCHTDLHAWHGDWPLPTKLPLAGGHEGAGVVVGMGENVKGWKIGDYAGIKWLNGSCMACEYCELGNEPNCPHADSSGYTHDGSFQQYATADAVQAAHIPQGTDLAEVAPVLCAGITVYKALKSANLMAGHWVAISGAAGGLGSLAVQYAKAMGYRVLGIDGGEGKEELFRSIGGEVFIDFTKEKDIVGAVLKATDGGAHGVINVSVSEAAIEASTRYVRANGTTVLVGMPAGAKCCSDVFNQVVKSISIVGSYVGNRADTREALDFFARGLVKSPIKVVGLSTLPEIYEKMEKGQIVGRYVVDTSK
On to B4, for which the “NADH-dependent Activity Furfural Reductase” value in series [1] is reported as “++”.

B5: Y295C: native Adh1 with the single substitution Y295C (protein, listed as Saccharomyces cerevisiae)
chain: B4 chain with P110S, Y295C
For B5, in series [1], the “NADH-dependent Activity Furfural Reductase” value was “+++”. For the same molecule, in series [2], the “NADH-dependent Activity HMF reductase” value is “+”.
